Where no end group is shown, it is not given here. [ ]: non-standard residue; d: D form. The star is where a group is joined. X1 = 5‑aminoethylsulfonamide isoquinoline, O=S(=O)(NCCN*)c1cccc2cnccc12; hLeu = CC(C)CC[C@H](N)C(=O)O; Orn = NCCC[C@H](N)C(=O)O; Dab = NCC[C@H](N)C(=O)O
Tests used:
[1] = target: protein kinase A, catalytic subunit; test: cell-based or functional assay
protein kinase B = protein kinase B (UniProt P31749); test: cell-based or functional assay
protein kinase B, sequence (P31749 whole entry): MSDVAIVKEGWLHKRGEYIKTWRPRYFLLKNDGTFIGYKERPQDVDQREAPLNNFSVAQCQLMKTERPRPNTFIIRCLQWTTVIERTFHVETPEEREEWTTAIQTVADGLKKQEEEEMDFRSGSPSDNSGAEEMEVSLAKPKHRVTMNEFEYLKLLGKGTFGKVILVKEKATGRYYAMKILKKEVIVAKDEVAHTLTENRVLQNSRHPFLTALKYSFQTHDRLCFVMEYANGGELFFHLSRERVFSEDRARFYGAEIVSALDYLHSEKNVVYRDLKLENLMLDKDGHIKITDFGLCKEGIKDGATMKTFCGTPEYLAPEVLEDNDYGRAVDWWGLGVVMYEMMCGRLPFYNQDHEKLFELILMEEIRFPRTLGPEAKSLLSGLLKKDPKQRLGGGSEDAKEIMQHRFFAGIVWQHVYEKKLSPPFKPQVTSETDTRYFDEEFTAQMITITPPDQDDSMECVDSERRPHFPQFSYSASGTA

% inhibition of kinase activity at 1 µM; PKA-kinase Assay 1 [1] [%] | % inhibition of kinase activity at 1 µM; PKA-kinase Assay 2 [1] [%] | % inhibition of kinase activity at 1 µM; PKB-kinase (spa) Assay 1 (protein kinase B) [%] | % inhibition of kinase activity at 1 µM; PKB-kinase (spa) Assay 2 (protein kinase B) [%] | Binder
95 | 96 | 58 | 52 | RPR[Orn]E(X1)[Orn]F (not fully specified (C-terminus)) [TY-60020-11]
92 | 94 | 45 | 48 | RPR[Orn]E(X1)[Dab][hLeu] (not fully specified (C-terminus)) [TY-60020-10]
96 | 97 | 71 | 57 | RPR[Orn]E(X1)[Dab]F (not fully specified (C-terminus)) [TY-60020-9]
